# Results reported in patent US20240100176A1 (Eli Lilly, published 2024).
# T1: hexahistidine-tagged cynomolgus monkey IL-4Rα extracellular domain (cynomolgus monkey, UniProt P24394 26-231 (human entry))
# T1 construct: also called cynomolgus monkey IL-4Rα ECD; not shown: hexahistidine tag
# T1 chain: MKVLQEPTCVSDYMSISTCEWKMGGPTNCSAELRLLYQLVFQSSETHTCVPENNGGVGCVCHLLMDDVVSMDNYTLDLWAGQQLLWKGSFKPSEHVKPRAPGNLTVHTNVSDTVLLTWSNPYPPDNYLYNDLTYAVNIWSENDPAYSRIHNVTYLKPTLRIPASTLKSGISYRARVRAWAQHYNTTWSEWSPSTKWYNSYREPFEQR
# T2: hexahistidine-tagged human IL-4Rα extracellular domain (human, UniProt P24394 26-232)
# T2 construct: In the MSD assay the plate coat is the His-tagged ECD; also called human IL-4Rα ECD; Wild type receptor; not shown: hexahistidine tag
# T2 sequence: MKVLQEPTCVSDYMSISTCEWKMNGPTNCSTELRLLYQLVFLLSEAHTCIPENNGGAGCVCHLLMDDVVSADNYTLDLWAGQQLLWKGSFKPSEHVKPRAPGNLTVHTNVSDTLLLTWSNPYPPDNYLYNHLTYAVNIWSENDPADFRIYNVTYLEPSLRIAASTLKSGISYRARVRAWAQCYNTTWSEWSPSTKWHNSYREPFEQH
# T3: human IL-4Rα on cells (human PBMC B cells and CD4+ T cells, Daudi cells, HEK-Blue IL-4/IL-13 cells, myeloid … (human, UniProt P24394 26-825))
# T3 sequence: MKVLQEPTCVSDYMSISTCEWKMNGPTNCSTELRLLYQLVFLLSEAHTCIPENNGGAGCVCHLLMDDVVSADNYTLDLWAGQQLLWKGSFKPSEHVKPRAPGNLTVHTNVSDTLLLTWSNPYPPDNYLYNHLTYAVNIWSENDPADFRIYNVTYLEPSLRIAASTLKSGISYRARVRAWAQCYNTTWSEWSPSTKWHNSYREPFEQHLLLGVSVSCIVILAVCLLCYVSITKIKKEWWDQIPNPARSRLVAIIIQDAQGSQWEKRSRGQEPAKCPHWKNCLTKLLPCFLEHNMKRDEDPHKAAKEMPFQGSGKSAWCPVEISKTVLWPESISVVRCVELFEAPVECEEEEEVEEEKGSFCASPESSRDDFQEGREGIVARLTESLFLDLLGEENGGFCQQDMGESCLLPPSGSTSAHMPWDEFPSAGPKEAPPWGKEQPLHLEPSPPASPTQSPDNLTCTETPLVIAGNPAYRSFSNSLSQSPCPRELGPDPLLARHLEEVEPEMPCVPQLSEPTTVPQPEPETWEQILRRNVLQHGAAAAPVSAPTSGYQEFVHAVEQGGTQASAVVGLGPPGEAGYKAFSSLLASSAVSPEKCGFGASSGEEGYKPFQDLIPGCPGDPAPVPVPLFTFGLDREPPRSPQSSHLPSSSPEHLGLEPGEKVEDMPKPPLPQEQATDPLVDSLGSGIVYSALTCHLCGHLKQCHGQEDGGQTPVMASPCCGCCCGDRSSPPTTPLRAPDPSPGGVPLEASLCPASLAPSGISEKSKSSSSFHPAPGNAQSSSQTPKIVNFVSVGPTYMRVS
# B1: anti-human IL-4Rα antibody Ab1 (antibody, human IgG4 S228P, kappa)
# heavy: QVQLVESGGGLVQPGGSLRLSCVASGFTFSHSSMNWVRQAPGKGLEWVSYISRATGAVYYADSVKGRFTISRDNAKNSLYLQMNSLRDEDTAVYYCAREPVFDYWGQGTLVTVSSASTKGPCVFPLAPCSRSTSESTAALGCLVKDYFPEPVTVSWNSGALTSGVHTFPAVLQSSGLYSLSSVVTVPSSSLGTKTYTCNVDHKPSNTKVDKRVESKYGPPCPPCPAPEFLGGPSVFLFPPKPKDTLMISRTPEVTCVVVDVSQEDPEVKFNWYVDGVEVHNAKTKPREEQFNSTYRVVSVLTVLHQDWLNGKEYKCKVSNKGLPSSIEKTISKAKGQPREPQVYTLPPSREEMTKNQVSLTCLVKGFYPSDICVEWESNGQPENNYKTTPPVLDSDGSFFLYSRLTVDKSRWQQGNVFSCSVMHEALHNHYTQKSLSLSLG
# light: DIQMTQSPSAMSASVGDRVTITCRASQDISNYLAWFQQKPGKVPTRLIYAASSLQSGVPSRFSGSGSGTEFTLTISSLQPEDFATYYCLQWSSYPRTFGQGTKVEIKRTVAAPSVFIFPPSDEQLKSGTASVVCLLNNFYPREAKVQWKVDNALQSGNSQESVTEQDSKDSTYSLSSTLTLSKADYEKHKVYACEVTHQGLSSPVTKSFNRGEC
# notes: human kappa light chain; also called anti-human IL-4Rα Ab1; unconjugated Ab1
# Tests used:
# [1] = target: T1, hexahistidine-tagged cynomolgus monkey …; assay: competition MSD ELISA (solution equilibrium, 37 °C), apparent KD, single experiment
# Procedure: (§1) Example 3a. […] A 96-well multi-array plate (Meso Scale Diagnostics, Cat. #L15XA-3) was coated at 4° C. overnight with 0.5 μg/mL hexahistidine-tagged human or cynomolgus monkey IL-4Rα ECD in phosphate buffered saline (PBS). Following coating, plates were washed 10 times with 200 μL PBST (PBS with 0.05% Tween® 20) and blocked with 300 μL/well of PBS casein blocking buffer (Pierce, Cat. #37528) at 37° C. for 1 hour. Plates were then washed 10 times as above, and 50 μL of the preincubated antibody:IL-4Rα dilution series was transferred to the wells and incubated at 37° C. with 300 rpm shaking for […]. Plates were washed 10 times with PBST, 50 μL of 1 μg/mL anti-human antibody sulfo-tag 20 (Meso Scale Diagnostics, Cat. #R32AJ-1) was added to the plates for the assay of Table 7a, and anti-Human NHP Kappa Light chain SULFO-TAG 20 (Meso Scale Diagnostics, Cat #D20TF-6) was added to the plates for the assay of Table 7b, and plates were incubated at 37° C. with 300 rpm shaking for 30 minutes. Plates were washed 10 times with PBST, 150 μL/well of 1× Read Buffer T was added to the wells and analyzed on a SECTOR® Imager 6000 (Meso Scale Diagnostics) 15 min after buffer addition. The apparent KD is determined by fitting a sigmoidal curve to the electrochemiluminescence (ECL) response vs. log (soluble IL-4Rα concentration) using GraphPad Prism 9. Data is graphed with normalized ECL values.
# [2] = target: T2, hexahistidine-tagged human IL-4Rα …; assay: as above
# Procedure: as §1
# [3] = target: T4, hexahistidine tagged human IL-4Rα ECD S168R (human, UniProt P24394 26-232); assay: capture ELISA: Ab1 on anti-human IgG Fc, His-tagged receptor at 1 µg/mL, anti-His HRP
# T4 construct: not shown: hexahistidine tag
# Source text: (§2) Example 2d. […] Briefly, thirty surface amino acid residue substitutions were introduced individually into hexahistidine tagged human IL-4Rα extra cellular domain (ECD) as follows: K2D, E6R, K22D, P26R, T31R, F41A, L42G, L43G, E45R, E52R, G56R, D66R, A71R, Q82G, K87D, E94R, H107A, D108R, P124R, D125R, D143R, R148D, L155R, R160D, S164R, S168R, Q181R, P192R, K195D, or H197G. Each mutant protein having a single amino acid residue substitution as described above was transiently expressed in CHO cells and purified using standard immobilized metal affinity chromatography techniques. […] The plates were then washed 3 times with PBST and the exemplified human IL-4Rα antibody was added to the wells at a final concentration of 1 μg/mL in PBS-casein and incubated for 1 hour at room temperature. The plates were washed 3 times with PBST, the IL-4Rα mutant proteins were serially diluted 5-fold from 1 μg/mL for 3 points. in PBS-casein and added to the plate at 50 μL/well and incubated for 1 hour at room temperature. The plates were washed 3 times with PBST and a 1000-fold dilution of anti-histidine tag antibody HRP conjugate (R&D Systems, Cat. #MAB050H) in PBS-casein was added and incubated for 45 minutes at room temperature. The plates were washed 3 times, TMB substrate (Pierce, Cat. #34028) was added per manufacturer instructions, the reaction was quenched with H₂SO₄, and absorbance was read at 450 nm on an ELISA plate reader.
# [4] = target: T5, hexahistidine tagged human IL-4Rα ECD R160D (human, UniProt P24394 26-232); assay: as above
# T5 construct: not shown: hexahistidine tag
# Source text: as §2
# [5] = target: T3, human IL-4Rα on cells (human PBMC B …); assay: cell-based or functional assay
# T5 sequence (P24394 26-232 R185D): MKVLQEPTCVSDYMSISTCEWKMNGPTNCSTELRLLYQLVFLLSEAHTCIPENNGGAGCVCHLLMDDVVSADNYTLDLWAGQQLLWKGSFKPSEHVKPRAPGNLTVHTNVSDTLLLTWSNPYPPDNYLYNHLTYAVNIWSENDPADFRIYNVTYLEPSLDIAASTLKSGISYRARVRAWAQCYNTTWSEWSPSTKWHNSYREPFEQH
binder,measurement,setting,value
B1,Kd,[1],0.0233 nM
same,Kd,[2],0.0208 nM
same,ELISA (OD450),[3],1.88 OD450
same,ELISA (OD450),[4],1.91 OD450
same,IL-4 IC50 (nM): inhibition of IL-4 induced SEAP activity in HEK-Blue IL-4R and IL-13R expressing cells,[5],0.08 nM
same,IL-13 IC50 (nM): inhibition of IL-13 induced SEAP activity in HEK-Blue IL-4R and IL-13R expressing cells,[5],0.67 nM
